Measured values taken from paper PMC10350922, “Allosteric Inhibitors of Macrophage Migration Inhibitory Factor (MIF) Interfere with Apoptosis-Inducing Factor (AIF) Co-Localization to Prevent Parthanatos”.

Target: MIF (ZP307-labeled) (human, UniProt P14174 2-115)
Test: competition; competes with PA20-Q1, dose-dependent; 5 mM Mg2+; 100 mM Tris, 5 mM MgCl2, 5 mM KCl, pH 8.2; 1 uM labeled MIF, 1 uM PA20-Q1; inhibitor preincubation at rt
Conditions: protein: recombinant; tags: C-terminal His-tagged and untagged both made; chain copies: 3; single strand

AAAAAAAAAAAAAAAAAAAA (ssDNA) [PA20]
binding result: binds
